Data reported in patent EP4585618A1 (Jiangsu Hengrui Pharmaceuticals Co., Ltd., dated 2025).
Substitutions are numbered along the chain they refer to.

Assays:
[1] = molecular target: T1, His-tagged ILT4 protein extracellular domain: ILT4-His (human, UniProt Q8N423 22-460); experiment: ELISA, coated ILT4-His 1 µg/mL; Assay 2
T1 construct: Expressed in 293 cells; also called human ILT4-His protein

[2] = molecular target: T1, His-tagged ILT4 protein extracellular …; experiment: screening of chimeric antibodies (ILT4 protein binding, cell binding, ILT4/HLA-G blocking)
[3] = molecular target: T1, His-tagged ILT4 protein extracellular …; experiment: ELISA, coated ILT4-His 1 µg/mL; Assay 5
[4] = molecular target: T1, His-tagged ILT4 protein extracellular …; experiment: SPR (Biacore), antibody captured on Protein A chip, ILT4-His as analyte, 1:1 model

T1 sequence (Q8N423 other isoform, or with tags, fused parts or gaps limits assumed): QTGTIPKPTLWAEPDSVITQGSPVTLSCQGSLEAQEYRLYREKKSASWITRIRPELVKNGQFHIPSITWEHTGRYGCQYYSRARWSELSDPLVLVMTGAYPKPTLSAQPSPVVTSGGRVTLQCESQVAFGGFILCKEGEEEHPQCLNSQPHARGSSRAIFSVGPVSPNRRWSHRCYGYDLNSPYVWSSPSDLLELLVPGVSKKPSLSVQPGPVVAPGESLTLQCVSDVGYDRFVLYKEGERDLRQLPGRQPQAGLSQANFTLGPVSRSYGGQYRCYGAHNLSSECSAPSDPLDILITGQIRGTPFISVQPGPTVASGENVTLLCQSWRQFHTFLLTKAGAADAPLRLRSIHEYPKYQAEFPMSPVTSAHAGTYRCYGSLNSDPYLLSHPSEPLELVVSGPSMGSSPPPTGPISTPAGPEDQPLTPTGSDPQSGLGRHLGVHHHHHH

B1: chimeric antibody ChP2-E7 (antibody, human IgG4 S228P, kappa, F234A L235A, V domains shown)
VH: QVQLQQPGTELVKPGASVKLSCKASGYTFTSYWMHWVKQSPGQGLEWIGNINPSNGGPNYNENFKTKATLTVDKSSSTAYMQLNSLTSEDSAVYYCAGGDYYGGSYLFAYWGQGTLVTVSS
VL: DTVMTQSHKFMSTSVGDRVSVTCKASQDVNIAVAWYQQKPGQSPKLLIYSSSYRYTGVPDRFTGSGSETDFTFTISSVQAEDLAVYYCQQHYTFPYTFGGGTKLEIKR
notes: Murine variable regions with hIgG4(LALA) and CL constant regions; also called M P2-E7
EC50 [1]: 0.0729 µg/mL | Top [1]: 2 absorbance at 450 nm

B2: chimeric antibody ChP2-G4 (antibody, human IgG4 S228P, kappa, F234A L235A, V domains shown)
VH: EVQLQQSGPELVKPGASVKMSCKASGYTFTDYNMHWVKQSHGKSLEWIGYINPNNGGTTYNQKFKGKATLTVNKSSSTAYMELRSLTSEDSAVYYCASSEYYGSTFLFAYWGQGTLVTVSS
VL: B1 VL with T2I, S20G, V21I, N30S, S51A, E68G, V85A, T93S, F94T, Y96W
notes: Murine variable regions with hIgG4(LALA) and CL constant regions; also called M P2-G4
EC50 [1]: 0.0621 µg/mL | Top [1]: 1.83 absorbance at 450 nm

B3: chimeric antibody ChP2-E11 (antibody, human IgG4 S228P, kappa, F234A L235A, V domains shown)
VH: QVQLQQSGPELVKPGASVKISCKASAYTFTDYYINWVKQRPGQGLEWIGWIFPGSGSTYYNEKFKGKATLTVDKSSSTAYMLVSSLTSEDSAVYFCARSGTLVAPYAMDYWGQGTSVTVSS
VL: SIVMTQTPKFLLVSAGDRVTITCKASQSVSNDVAWYQQKPGQSPKLLIYYTSNRYTGVPDRFTGSGYGTDFTFTISTVQAEDLAVYFCQQDYSFPLTFGAGTKLEIKR
notes: Murine variable regions with hIgG4(LALA) and CL constant regions; also called M P2-E11
EC50 [1]: 0.0428 µg/mL | Top [1]: 1.98 absorbance at 450 nm

B4: chimeric antibody ChP2-E8 (antibody, human IgG4 S228P, kappa, F234A L235A, V domains shown)
VH: EVQLLESGGGLVKPGGSLKLSCAASGFTFSDYGIHWVRQAPEKGLEWVAYISSGSSIINYADTVKGRFTISRDNAKNTLLLQMTSLRSEDTAMYYCARGPNYYGSSYLLVYWGQGTLVTVSS
VL: B1 VL with T2I, V21I, K39R, S51A, E68G, T93N, F94I, Y96W
notes: Murine variable regions with hIgG4(LALA) and CL constant regions; also called M P2-E8
binding result [2]: binds

B5: chimeric antibody ChP2-B9 (antibody, human IgG4 S228P, kappa, F234A L235A, V domains shown)
VH: EVQLQQSGPELVKPGASVKISCKASGYTFTDYFMNWVKLSHGKSLEWIGDINPNNGGTSYNQRFKDKVTLTVDKSSSTAYMELRSLTSDSSAVYFCARNGYYDSNYLSYFDVWGTGTTVTVSS
VL: DIQMTQSPASLSVSVGETVTITCRASENIYSNLAWYQQKQGKSPQLLVYGATNLADGVPSRFSGSGSGTQYSLKINSLQSEDFGSYYCQHFWDTPYTFGGGTKLEIKR
notes: Murine variable regions with hIgG4(LALA) and CL constant regions; also called M P2-B9
EC50 [3]: 0.0487 µg/mL | Top [3]: 1.53 absorbance at 450 nm

B6: chimeric antibody ChP2-C2 (antibody, human IgG4 S228P, kappa, F234A L235A, V domains shown)
VH: QVQLKQSGPGLVQPSQSLSITCTVSGFSLTSYGVHWVRQSPGKGLEWLGVIWSGGHTDLNAAFISRLSINKDNSKSQVFFKMNSLQGDDTAIYYCARNGYGGCLDYWGQGTTLTVSS
VL: DIVMTQSHKFMSTSVGDRVSITCKAGQDVSIAVAWYQQKPGQSPQLLIYSASYRYTGVPDRFTGSGSGTDFTFAISSVQAEDLAVYYCQQYYSIPPSFGAGTKLEIKR
notes: Murine variable regions with hIgG4(LALA) and CL constant regions; also called M P2-C2
EC50 [3]: 0.0493 µg/mL | Top [3]: 1.16 absorbance at 450 nm

B7: chimeric antibody ChP2-C10 (antibody, human IgG4 S228P, kappa, F234A L235A, V domains shown)
VH: QVQLQQPGAELVKPGASVKLSCKASGYTFTSYWMHWVKQRPGQGLEWIGVIHPNSDTTNYNEKFKNKATLTVDKSSSTAYMQLSSLTSEDSAVYYCATRYDYAYYAMDYWGQGTSVTVSS
VL: DIVMTQSHKFMSTSVGDRVSITCKASQDVTTAVAWYQQKPGQSPKLLIYSASYRYTGVPDRFTGSGSGTDFTFTISSVQAEDLAVYHCQQHYSTSPTFGGGTMLEIKR
notes: Murine variable regions with hIgG4(LALA) and CL constant regions; also called M P2-C10
binding result [2]: binds

B8: chimeric antibody ChP2-E10 (antibody, human IgG4 S228P, kappa, F234A L235A, V domains shown)
VH: DVQLQESGPGLVKPSQSLSLTCSVTGYSITSGYYWNWIRQFPGNKLEWMGYMSYEGTNNSNPSLKNRISITRDTSKNQFFLKLNSVTTEDTARYYCARERAYYYGTLGAMDYWGQGTSVTVSS
VL: B5 VL with G50A, L78M, Y96F, G100S
notes: Murine variable regions with hIgG4(LALA) and CL constant regions; also called M P2-E10
EC50 [3]: 0.0658 µg/mL | Top [3]: 1.65 absorbance at 450 nm

B9: chimeric antibody ChP2-F4 (antibody, human IgG4 S228P, kappa, F234A L235A, V domains shown)
VH: EVQLVESGGGLVKPGGSLKLSCAASGFTFSDYGMHWVRQAPEKGLEWVAYISSGSRIIYYADTVKGRFTISRDNAKNTLFLQMTSLRSEDTAMYSCARFYNYAHYTMDYWGQGTSVTVSS
VL: B7 VL with T30S, A84T, V85L, H87Y, Q90H, S95P, M103K
notes: Murine variable regions with hIgG4(LALA) and CL constant regions; also called M P2-F4
binding result [2]: binds

B10: chimeric antibody ChP2-B3 (antibody, human IgG4 S228P, kappa, F234A L235A, V domains shown)
VH: QVQLKQSGPGLVQPSQSLSITCTVSGFSLTNYGVHWFRQSPGKGLEWLGMIWSGGNTDYNAAFTSRLIITKDNSKSQVFFKMNSMQADDTAIYYCARGDYGSSSAYWGQGTLVTVSS
VL: B6 VL with G26S, Q45K, A74T, Y91H, I94N, P95T, P96L, S97T
notes: Murine variable regions with hIgG4(LALA) and CL constant regions; also called M P2-B3
binding result [2]: binds

B11: humanized antibody huP1-G7 (antibody, human IgG4 S228P, kappa, F234A L235A, V domains shown)
VH: EVQLQESGPGLVKPSQTLSLTCTVSGYSITSGYYWNWIRQHPGKGLEWIGYISYDGGNNYNPFLKNRVTISRDTSKNQFSLKLSSVTAADTAVYYCAREGGSSWEYYGMDYWGQGTTVTVSS
VL: DIQMTQSPSSLSASVGDRVTITCRASENIYRNLAWYQQKPGKAPKLLLYAATNLADGVPSRFSGSGSGTDFTLTISSLQPEDFATYYCQQFWGSPYTFGGGTKVEIKR
notes: Full chains; also called P1-G7H1L1
Kd [4]: 0.158 nM | koff [4]: 7.2e-05 s⁻¹ | kon [4]: 457000 M⁻¹ s⁻¹

B12: humanized antibody huP1-D7 (antibody, human IgG4 S228P, kappa, F234A L235A, V domains shown)
VH: EVQLVQSGAEVKKPGASVKVSCKASGYTFTTYGMNWVRQAPGQGLEWMGWINTYSGVPTYAEDFKGRVTMTTDTSTSTAYMELRSLRSDDTAVYYCARRTDYDGYVMDSWGQGTTVTVSS
VL: DIVMTQSPDSLAVSLGERATINCKSSQSLFYSGNQKNYLAWYQQKPGQSPKLLLYWASTRESGVPDRFSGSGSGTDFTLTISSLQAEDVAVYYCQQYFSYPPTFGGGTKVEIKR
notes: Full chains; also called P1-D7H1L1
Kd [4]: 3.98 nM | koff [4]: 0.0103 s⁻¹ | kon [4]: 2.59e+06 M⁻¹ s⁻¹
